Results taken from patent US20180155451A1 (published 2018).

Molecular target: T1, FcγRIIa H (human, UniProt P12318 34-217)
T1 construct: extracellular domain; also called FcgRIIa H type; 2aH; not shown: His tag at the C terminus
T1 sequence (looked up): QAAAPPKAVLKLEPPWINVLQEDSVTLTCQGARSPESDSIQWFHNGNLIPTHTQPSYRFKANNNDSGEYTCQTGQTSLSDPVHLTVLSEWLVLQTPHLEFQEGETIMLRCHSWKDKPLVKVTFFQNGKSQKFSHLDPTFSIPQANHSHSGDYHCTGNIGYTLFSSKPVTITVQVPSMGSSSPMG
Experiment: SPR Biacore, relative binding

B1: GpH7-B3 variant I332_02A/GpL16-k0 (antibody, human IgG1, kappa)
heavy: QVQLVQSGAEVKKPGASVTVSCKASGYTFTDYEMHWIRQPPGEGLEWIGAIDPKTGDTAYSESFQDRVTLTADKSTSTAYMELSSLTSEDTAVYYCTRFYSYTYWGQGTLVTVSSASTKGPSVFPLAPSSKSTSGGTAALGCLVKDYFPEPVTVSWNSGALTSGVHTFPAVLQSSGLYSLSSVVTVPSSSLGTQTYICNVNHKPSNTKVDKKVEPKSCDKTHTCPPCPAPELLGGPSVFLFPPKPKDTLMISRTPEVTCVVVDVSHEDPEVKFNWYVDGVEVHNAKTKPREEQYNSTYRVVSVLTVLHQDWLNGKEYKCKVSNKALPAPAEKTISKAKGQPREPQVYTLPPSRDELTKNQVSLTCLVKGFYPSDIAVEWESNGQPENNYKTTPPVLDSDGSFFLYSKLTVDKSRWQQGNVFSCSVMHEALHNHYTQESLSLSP
light: DIVMTQSPLSLPVTPGEPASISCQASESLVHSNRNTYLHWYLQKPGQSPQLLIYKVSNRFSGVPDRFSGSGSGTDFTLKISRVEAEDVGVYYCSQNTHVPPTFGQGTKVEIERTVAAPSVFIFPPSDEQLKSGTASVVCLLNNFYPREAKVQWKVDNALQSGNSQESVTEQDSKDSTYSLSSTLTLSKADYEKHKVYACEVTHQGLSSPVTKSFNRGEC
notes: also called Ho Ab I332_02A
- Ho/Con_2aH: 119 % of GpH7-B3/GpL16-k0 (=100)

B2: GpH7-B3 variant H268_13S/GpL16-k0 (antibody, human IgG1, kappa)
heavy: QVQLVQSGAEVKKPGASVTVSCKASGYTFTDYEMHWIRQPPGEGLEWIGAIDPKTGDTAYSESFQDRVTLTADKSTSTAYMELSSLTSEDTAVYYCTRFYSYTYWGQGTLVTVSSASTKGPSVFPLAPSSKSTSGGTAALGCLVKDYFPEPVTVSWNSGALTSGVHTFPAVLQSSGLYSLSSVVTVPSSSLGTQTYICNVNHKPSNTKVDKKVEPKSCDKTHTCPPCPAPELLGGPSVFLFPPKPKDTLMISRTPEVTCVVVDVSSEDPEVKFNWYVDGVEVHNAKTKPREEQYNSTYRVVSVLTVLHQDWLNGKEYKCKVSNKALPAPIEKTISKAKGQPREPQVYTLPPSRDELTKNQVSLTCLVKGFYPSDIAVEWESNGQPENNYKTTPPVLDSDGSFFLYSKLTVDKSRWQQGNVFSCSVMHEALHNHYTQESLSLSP
light: DIVMTQSPLSLPVTPGEPASISCQASESLVHSNRNTYLHWYLQKPGQSPQLLIYKVSNRFSGVPDRFSGSGSGTDFTLKISRVEAEDVGVYYCSQNTHVPPTFGQGTKVEIERTVAAPSVFIFPPSDEQLKSGTASVVCLLNNFYPREAKVQWKVDNALQSGNSQESVTEQDSKDSTYSLSSTLTLSKADYEKHKVYACEVTHQGLSSPVTKSFNRGEC
notes: also called Ho Ab H268_13S
- Ho/Con_2aH: 114 % of GpH7-B3/GpL16-k0 (=100)

B3: GpH7-B3 variant I332_06M/GpL16-k0 (antibody, human IgG1, kappa)
heavy: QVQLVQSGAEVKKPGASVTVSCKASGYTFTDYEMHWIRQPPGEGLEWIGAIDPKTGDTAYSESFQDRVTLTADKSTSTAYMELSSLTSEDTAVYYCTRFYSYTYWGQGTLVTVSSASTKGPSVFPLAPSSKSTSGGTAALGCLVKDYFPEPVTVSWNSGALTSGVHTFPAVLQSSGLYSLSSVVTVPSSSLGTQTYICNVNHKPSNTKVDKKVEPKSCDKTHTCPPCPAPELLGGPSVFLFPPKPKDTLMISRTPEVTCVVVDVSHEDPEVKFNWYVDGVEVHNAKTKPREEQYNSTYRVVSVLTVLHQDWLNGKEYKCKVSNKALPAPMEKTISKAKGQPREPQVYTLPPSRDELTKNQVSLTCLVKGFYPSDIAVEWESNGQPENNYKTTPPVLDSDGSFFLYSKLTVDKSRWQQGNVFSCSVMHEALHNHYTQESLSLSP
light: DIVMTQSPLSLPVTPGEPASISCQASESLVHSNRNTYLHWYLQKPGQSPQLLIYKVSNRFSGVPDRFSGSGSGTDFTLKISRVEAEDVGVYYCSQNTHVPPTFGQGTKVEIERTVAAPSVFIFPPSDEQLKSGTASVVCLLNNFYPREAKVQWKVDNALQSGNSQESVTEQDSKDSTYSLSSTLTLSKADYEKHKVYACEVTHQGLSSPVTKSFNRGEC
notes: also called Ho Ab I332_06M
- Ho/Con_2aH: 114 % of GpH7-B3/GpL16-k0 (=100)

B4: GpH7-B3 variant G236_10E/GpL16-k0 (antibody, human IgG1, kappa)
heavy: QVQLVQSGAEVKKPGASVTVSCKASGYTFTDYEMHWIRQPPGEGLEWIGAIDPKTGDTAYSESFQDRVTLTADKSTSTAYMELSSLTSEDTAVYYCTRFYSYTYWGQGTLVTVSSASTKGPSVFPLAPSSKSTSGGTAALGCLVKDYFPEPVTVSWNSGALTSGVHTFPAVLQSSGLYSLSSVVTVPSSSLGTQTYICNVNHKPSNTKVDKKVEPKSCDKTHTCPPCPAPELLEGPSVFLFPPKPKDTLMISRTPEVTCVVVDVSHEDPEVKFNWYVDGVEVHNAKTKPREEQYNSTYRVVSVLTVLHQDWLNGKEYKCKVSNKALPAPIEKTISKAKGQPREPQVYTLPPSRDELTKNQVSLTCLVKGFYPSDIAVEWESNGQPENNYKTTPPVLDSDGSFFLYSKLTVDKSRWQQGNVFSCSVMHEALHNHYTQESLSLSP
light: DIVMTQSPLSLPVTPGEPASISCQASESLVHSNRNTYLHWYLQKPGQSPQLLIYKVSNRFSGVPDRFSGSGSGTDFTLKISRVEAEDVGVYYCSQNTHVPPTFGQGTKVEIERTVAAPSVFIFPPSDEQLKSGTASVVCLLNNFYPREAKVQWKVDNALQSGNSQESVTEQDSKDSTYSLSSTLTLSKADYEKHKVYACEVTHQGLSSPVTKSFNRGEC
notes: also called Ho Ab G236_10E
- Ho/Con_2aH: 122 % of GpH7-B3/GpL16-k0 (=100)

B5: GpH7-B3 variant I332_04F/GpL16-k0 (antibody, human IgG1, kappa)
heavy: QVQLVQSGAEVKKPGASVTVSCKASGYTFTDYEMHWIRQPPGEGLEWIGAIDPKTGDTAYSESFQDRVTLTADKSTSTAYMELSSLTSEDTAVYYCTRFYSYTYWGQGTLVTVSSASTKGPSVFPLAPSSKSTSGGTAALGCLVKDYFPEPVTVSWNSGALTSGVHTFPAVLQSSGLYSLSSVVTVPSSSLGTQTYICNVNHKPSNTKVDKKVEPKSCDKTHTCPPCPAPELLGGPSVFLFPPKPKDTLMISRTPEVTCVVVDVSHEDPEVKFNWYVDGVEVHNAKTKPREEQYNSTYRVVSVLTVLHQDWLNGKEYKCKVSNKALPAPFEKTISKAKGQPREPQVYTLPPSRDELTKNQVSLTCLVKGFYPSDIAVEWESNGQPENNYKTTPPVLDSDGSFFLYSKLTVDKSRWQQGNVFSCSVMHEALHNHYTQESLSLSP
light: DIVMTQSPLSLPVTPGEPASISCQASESLVHSNRNTYLHWYLQKPGQSPQLLIYKVSNRFSGVPDRFSGSGSGTDFTLKISRVEAEDVGVYYCSQNTHVPPTFGQGTKVEIERTVAAPSVFIFPPSDEQLKSGTASVVCLLNNFYPREAKVQWKVDNALQSGNSQESVTEQDSKDSTYSLSSTLTLSKADYEKHKVYACEVTHQGLSSPVTKSFNRGEC
notes: also called Ho Ab I332_04F
- Ho/Con_2aH: 111 % of GpH7-B3/GpL16-k0 (=100)

B6: GpH7-B3 variant I332_10E/GpL16-k0 (antibody, human IgG1, kappa)
heavy: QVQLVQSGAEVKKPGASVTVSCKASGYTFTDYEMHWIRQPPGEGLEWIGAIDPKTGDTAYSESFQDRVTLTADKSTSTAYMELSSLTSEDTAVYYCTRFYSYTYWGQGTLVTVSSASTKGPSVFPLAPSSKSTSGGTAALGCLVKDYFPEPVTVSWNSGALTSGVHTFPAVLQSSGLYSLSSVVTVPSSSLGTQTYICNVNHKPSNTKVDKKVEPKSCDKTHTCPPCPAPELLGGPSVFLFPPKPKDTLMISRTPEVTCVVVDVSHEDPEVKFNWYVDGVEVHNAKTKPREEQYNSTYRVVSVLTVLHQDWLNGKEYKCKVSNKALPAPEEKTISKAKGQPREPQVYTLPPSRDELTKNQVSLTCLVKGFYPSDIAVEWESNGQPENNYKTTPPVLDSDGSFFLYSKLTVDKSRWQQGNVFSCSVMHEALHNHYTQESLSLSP
light: DIVMTQSPLSLPVTPGEPASISCQASESLVHSNRNTYLHWYLQKPGQSPQLLIYKVSNRFSGVPDRFSGSGSGTDFTLKISRVEAEDVGVYYCSQNTHVPPTFGQGTKVEIERTVAAPSVFIFPPSDEQLKSGTASVVCLLNNFYPREAKVQWKVDNALQSGNSQESVTEQDSKDSTYSLSSTLTLSKADYEKHKVYACEVTHQGLSSPVTKSFNRGEC
notes: also called Ho Ab I332_10E
- Ho/Con_2aH: 117 % of GpH7-B3/GpL16-k0 (=100)

B7: GpH7-B3 variant I336_06M/GpL16-k0 (antibody, human IgG1, kappa)
heavy: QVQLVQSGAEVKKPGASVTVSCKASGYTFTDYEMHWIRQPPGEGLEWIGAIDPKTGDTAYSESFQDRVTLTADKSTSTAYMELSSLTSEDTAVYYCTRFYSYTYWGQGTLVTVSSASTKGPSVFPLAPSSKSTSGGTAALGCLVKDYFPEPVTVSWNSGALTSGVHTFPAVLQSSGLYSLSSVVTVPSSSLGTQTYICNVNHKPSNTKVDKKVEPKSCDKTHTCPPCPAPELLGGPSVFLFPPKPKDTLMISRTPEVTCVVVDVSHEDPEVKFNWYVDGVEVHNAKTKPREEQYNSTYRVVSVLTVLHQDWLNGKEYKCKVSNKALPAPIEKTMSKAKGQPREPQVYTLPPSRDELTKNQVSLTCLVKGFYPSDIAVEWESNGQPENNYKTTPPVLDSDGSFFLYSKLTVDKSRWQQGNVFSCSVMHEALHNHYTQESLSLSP
light: DIVMTQSPLSLPVTPGEPASISCQASESLVHSNRNTYLHWYLQKPGQSPQLLIYKVSNRFSGVPDRFSGSGSGTDFTLKISRVEAEDVGVYYCSQNTHVPPTFGQGTKVEIERTVAAPSVFIFPPSDEQLKSGTASVVCLLNNFYPREAKVQWKVDNALQSGNSQESVTEQDSKDSTYSLSSTLTLSKADYEKHKVYACEVTHQGLSSPVTKSFNRGEC
notes: also called Ho Ab I336_06M
- Ho/Con_2aH: 100 % of GpH7-B3/GpL16-k0 (=100)

B8: GpH7-B3 variant A330_12R/GpL16-k0 (antibody, human IgG1, kappa)
heavy: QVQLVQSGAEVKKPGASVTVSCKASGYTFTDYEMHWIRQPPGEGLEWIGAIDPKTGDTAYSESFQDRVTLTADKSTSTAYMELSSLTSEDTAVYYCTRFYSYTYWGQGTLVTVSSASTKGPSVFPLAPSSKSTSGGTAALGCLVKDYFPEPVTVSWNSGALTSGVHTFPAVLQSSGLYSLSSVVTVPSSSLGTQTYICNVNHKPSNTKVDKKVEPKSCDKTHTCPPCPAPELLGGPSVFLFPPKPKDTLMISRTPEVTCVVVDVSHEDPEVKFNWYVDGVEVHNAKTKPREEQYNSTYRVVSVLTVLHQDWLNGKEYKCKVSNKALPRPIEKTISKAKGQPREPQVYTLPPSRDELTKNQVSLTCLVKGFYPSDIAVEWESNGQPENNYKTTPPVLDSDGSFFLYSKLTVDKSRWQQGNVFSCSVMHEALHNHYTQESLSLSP
light: DIVMTQSPLSLPVTPGEPASISCQASESLVHSNRNTYLHWYLQKPGQSPQLLIYKVSNRFSGVPDRFSGSGSGTDFTLKISRVEAEDVGVYYCSQNTHVPPTFGQGTKVEIERTVAAPSVFIFPPSDEQLKSGTASVVCLLNNFYPREAKVQWKVDNALQSGNSQESVTEQDSKDSTYSLSSTLTLSKADYEKHKVYACEVTHQGLSSPVTKSFNRGEC
notes: also called Ho Ab A330_12R
- Ho/Con_2aH: 110 % of GpH7-B3/GpL16-k0 (=100)

B9: GpH7-B3 variant G236_03V/GpL16-k0 (antibody, human IgG1, kappa)
heavy: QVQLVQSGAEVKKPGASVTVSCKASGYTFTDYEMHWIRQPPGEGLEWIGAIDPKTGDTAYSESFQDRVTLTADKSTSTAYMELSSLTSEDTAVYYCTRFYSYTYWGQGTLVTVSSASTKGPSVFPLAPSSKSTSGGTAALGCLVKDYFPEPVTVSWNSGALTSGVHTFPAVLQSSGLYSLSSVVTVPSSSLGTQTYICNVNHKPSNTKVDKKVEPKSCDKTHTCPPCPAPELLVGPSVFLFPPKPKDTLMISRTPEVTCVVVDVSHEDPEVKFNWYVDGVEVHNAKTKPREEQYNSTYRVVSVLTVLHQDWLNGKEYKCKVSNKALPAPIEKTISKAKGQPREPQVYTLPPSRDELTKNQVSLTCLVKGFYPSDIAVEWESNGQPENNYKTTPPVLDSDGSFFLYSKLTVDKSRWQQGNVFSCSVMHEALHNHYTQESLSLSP
light: DIVMTQSPLSLPVTPGEPASISCQASESLVHSNRNTYLHWYLQKPGQSPQLLIYKVSNRFSGVPDRFSGSGSGTDFTLKISRVEAEDVGVYYCSQNTHVPPTFGQGTKVEIERTVAAPSVFIFPPSDEQLKSGTASVVCLLNNFYPREAKVQWKVDNALQSGNSQESVTEQDSKDSTYSLSSTLTLSKADYEKHKVYACEVTHQGLSSPVTKSFNRGEC
notes: also called Ho Ab G236_03V
- Ho/Con_2aH: 111 % of GpH7-B3/GpL16-k0 (=100)

B10: GpH7-B3 variant I332_03V/GpL16-k0 (antibody, human IgG1, kappa)
heavy: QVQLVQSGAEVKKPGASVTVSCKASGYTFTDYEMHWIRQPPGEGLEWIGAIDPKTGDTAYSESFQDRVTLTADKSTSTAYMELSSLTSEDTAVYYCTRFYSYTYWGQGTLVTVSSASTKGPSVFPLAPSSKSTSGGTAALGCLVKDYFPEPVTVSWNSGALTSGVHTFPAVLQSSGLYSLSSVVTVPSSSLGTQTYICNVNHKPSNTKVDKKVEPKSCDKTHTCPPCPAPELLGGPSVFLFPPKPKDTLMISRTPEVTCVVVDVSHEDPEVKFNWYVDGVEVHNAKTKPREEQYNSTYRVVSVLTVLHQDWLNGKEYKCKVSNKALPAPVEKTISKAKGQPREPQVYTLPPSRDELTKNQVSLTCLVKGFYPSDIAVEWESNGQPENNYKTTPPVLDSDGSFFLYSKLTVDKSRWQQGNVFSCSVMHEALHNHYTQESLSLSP
light: DIVMTQSPLSLPVTPGEPASISCQASESLVHSNRNTYLHWYLQKPGQSPQLLIYKVSNRFSGVPDRFSGSGSGTDFTLKISRVEAEDVGVYYCSQNTHVPPTFGQGTKVEIERTVAAPSVFIFPPSDEQLKSGTASVVCLLNNFYPREAKVQWKVDNALQSGNSQESVTEQDSKDSTYSLSSTLTLSKADYEKHKVYACEVTHQGLSSPVTKSFNRGEC
notes: also called Ho Ab I332_03V
- Ho/Con_2aH: 106 % of GpH7-B3/GpL16-k0 (=100)

B11: GpH7-B3 variant I332_18N/GpL16-k0 (antibody, human IgG1, kappa)
heavy: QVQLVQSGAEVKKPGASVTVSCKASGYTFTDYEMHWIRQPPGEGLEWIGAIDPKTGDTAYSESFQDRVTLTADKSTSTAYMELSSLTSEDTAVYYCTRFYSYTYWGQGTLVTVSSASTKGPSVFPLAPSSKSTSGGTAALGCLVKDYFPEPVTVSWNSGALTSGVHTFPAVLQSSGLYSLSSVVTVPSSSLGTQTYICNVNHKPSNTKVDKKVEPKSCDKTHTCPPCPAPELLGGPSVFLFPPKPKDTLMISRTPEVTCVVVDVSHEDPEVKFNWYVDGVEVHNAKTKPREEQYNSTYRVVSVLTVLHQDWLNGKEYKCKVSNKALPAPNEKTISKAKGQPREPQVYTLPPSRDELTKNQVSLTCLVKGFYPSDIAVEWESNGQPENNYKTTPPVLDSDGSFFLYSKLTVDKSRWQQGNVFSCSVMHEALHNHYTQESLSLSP
light: DIVMTQSPLSLPVTPGEPASISCQASESLVHSNRNTYLHWYLQKPGQSPQLLIYKVSNRFSGVPDRFSGSGSGTDFTLKISRVEAEDVGVYYCSQNTHVPPTFGQGTKVEIERTVAAPSVFIFPPSDEQLKSGTASVVCLLNNFYPREAKVQWKVDNALQSGNSQESVTEQDSKDSTYSLSSTLTLSKADYEKHKVYACEVTHQGLSSPVTKSFNRGEC
notes: also called Ho Ab I332_18N
- Ho/Con_2aH: 118 % of GpH7-B3/GpL16-k0 (=100)
